Assay results as given in publication PMC2804849.

Tests used:
[1] = target: Rbx1-Cul1-CFP complex (RC^CFP) (human) (UniProt P62877); assay: FRET or BRET
[2] = target: SCF holoenzyme (FRET experiment of Figure S2c) (human) (UniProt P62877); assay: FRET or BRET
[3] = target: Nedd8-conjugated RC^CFP (human) (UniProt P62877); assay: FRET or BRET
[4] = target: SCF (Homo sapiens) (UniProt Q13616); settings: cited from earlier work

Chain of Cdc34 (P49427 whole entry): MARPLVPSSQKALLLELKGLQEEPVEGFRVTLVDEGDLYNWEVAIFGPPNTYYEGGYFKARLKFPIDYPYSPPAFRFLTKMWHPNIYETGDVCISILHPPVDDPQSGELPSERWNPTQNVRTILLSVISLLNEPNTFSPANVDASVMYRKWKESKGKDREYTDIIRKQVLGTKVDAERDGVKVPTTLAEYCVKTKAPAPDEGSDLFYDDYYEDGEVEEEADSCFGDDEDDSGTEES

human Cdc34, WT, labelled with Lumio Green at the C-terminus (from UniProt Q712K3 1-238) (enzyme)
Kd [1]: 0.074 µM
koff [1]: 35 s⁻¹
kon [1]: 4.7e+08 M⁻¹ s⁻¹
fold change of koff against RC^CFP heterodimer [2]: < 2 fold

human Cdc34 charged with ubiquitin (Cdc34~Ub) (from UniProt Q712K3 1-238; P0CG48 1-76) (complex)
fold change of the kinetic parameters against uncharged Cdc34 [3]: 2 fold

Cdc34 (from UniProt P49427)
Kd [4]: 0.02 µM
